We go through 15 molecules from US20090081760A1, “DMO METHODS AND COMPOSITIONS” (priority 2007, published 2009).

Numbering of substitutions follows the chain as printed. Numbers in names are those of the source.

In one series the test system is Dicamba. The series can be described thus: LC-MS/MS screen for oxygenase (DMO) activity: E. coli liquid culture expressing ddmC or a variant, grown with dicamba, DCSA detected in supernatant. It counts as cell-based. As to conditions: for Changed to: M % of control for set / Changed to: M DCSA values (ppm): residue changed to M; for Changed to: I % of control for set / Changed to: I DCSA values (ppm): residue changed to I; for Changed to: C % of control for set / Changed to: C DCSA values (ppm): residue changed to C. The protocol:
An LC-MS/MS screen for oxygenase activity was used to detect DCSA. The method comprises a two stage process made up of a liquid cell culture assay coupled to an LC-MS/MS detection screen. In the liquid cell culture stage, the gene of interest, i.e. ddmC or a variant thereof, was cloned under the control of a promoter (e.g. T7 promoter, pET vector) and transformed into an E. coli host cell. […] Cells were spun down, and the supernatant was filtered and diluted tenfold with the inclusion of 8 μM salicylic acid as an internal standard. Samples of the supernatant, and/or optionally the cell pellet (or lysate thereof), from this first stage were analyzed for DCSA levels (i.e. DMO activity level) by LC-MS/MS.
While many oxygenases such as DMO are multi component systems requiring other helper enzymes for activity, it was observed that components in E. coli may substitute for these helper enzymes or functions. Thus, transformation of E. coli with a single “oxygenase” gene from a multi component system nevertheless results in measurable activity for the gene alone, even without other components being co-transformed into the same E. coli cell. Activity is observed because, in E. coli cells, surrogates with homology to the original helper enzymes (e.g. ferredoxin and reductase) may be utilized. Additionally, E. coli can take up substrate (e.g. dicamba) and excrete the product (e.g. DCSA) into the media supernatant, allowing for the speed and simplicity of this cell based screen. No lysis of cells is required. Alternatively, an HPLC-based assay for DMO activity may be utilized. Promising variants were used as templates for additional rounds DOT and or other mutagenesis methods in an iterative manner. […]
Sets of saturation mutagenesis primers (using NNS degenerate triplets) for 31 residues at the active site and involved in the electron transfer chain as indicated in Table 28 were designed and used to introduce mutations into the ddmC gene by means of terminated PCR on the template (ddmC gene with His tag and two changes, T2S+I123L (SEQ ID NO:23) in pMV4 vector (Modular Genetics, Cambridge, Mass.). Resulting PCR products were treated with DpnI to remove the parental template molecules, self-annealed and transformed into chemically competent E. coli Top10 F′ (Invitrogen, Carlsbad, Calif.). Standard DNA cloning methods were utilized (e.g. Sambrook et al., 1989). The individual colonies were grown in liquid culture. DNA was isolated by a standard miniprep procedure and used to transform the chemically competent E. coli (e.g. BL21(DE3)). […] Cells were spun down, and the supernatant was filtered and diluted tenfold with 8 μM salicylic acid as an internal standard. The DCSA levels (i.e. DMO activity level) were determined by LC-MS analysis as described above (e.g. Example 8).
Additional single substitution variants of DMO at residues corresponding to interaction (e.g. subunit interface) domains and the ferredoxin binding site were also prepared and assayed for their effect on enzymatic activity (See also Examples 8A, 8B) by the LC/MS screen. In most cases shown in Table 29, one conservative and one neutral substitution was tried at a given residue.
Table 30 lists DMO activity data (by LC/MS screen) for 58 variants relative to ddmC_M—6his (the wild type ddmC sequence with an N-terminal His tag (SEQ ID NO: 154), while Table 31 lists DMO activity data (by LC/MS screen) for 1685 variants relative to ddmC_RLE6his (the wild type ddmC sequence with T2S and I123L mutations (SEQ ID NO:23), and a C-terminal 6×His tag). The numbering of residues is based on the numbering found in SEQ ID NO:2 or SEQ ID NO:3.

Series [1] deals with the molecule itself. The series can be described thus: X-ray crystal structure (homotrimer in the asymmetric unit).
The mark [2] stands for this setting: DCSA relative to control average of the data set.

B1: Control: control (wild type) DMO of the Table 29 LC/MS screen (protein, UniProt Q5S3I3 2-339, looked up)
Dicamba O-demethylase, …: TFVRNAWYVAALPEELSEKPLGRTILDTPLALYRQPDGVVAALLDICPHRFAPLSDGILVNGHLQCPYHGLEFDGGGQCVHNPHGNGARPASLNVRSFPVVERDALIWIWPGDPALADPGAIPDFGCRVDPAYRTVGGYGHVDCNYKLLVDNLMDLGHAQYVHRANAQTDAFDRLEREVIVGDGEIQALMKIPGGTPSVLMAKFLRGANTPVDAWNDIRWNKVSAMLNFIAVAPEGTPKEQSIHSRGTHILTPETEASCHYFFGSSRNFGIDDPEMDGVLRSWQAQALVKEDKVVVEAIERRRAYVEANGIRPAMLSCDEAAVRVSREIEKLEQLEAA
Consider B1, for which the “Control DCSA Produced (ppm) Set 1 average (±SD)” value in the series with Dicamba (Set 1 average) amounted to 38.22 ± 7.81 ppm. Further, in the series on Dicamba (Set 2 average), the “Control DCSA Produced (ppm) Set 2 average (±SD)” value was determined as 26.59 ± 4.96 ppm. Further, the “Control DCSA Produced (ppm) Set 3 average (±SD)” value in the series with Dicamba (Set 3 average) stood at 38.00 ± 6.87 ppm.

B2: dicamba monooxygenase (DMO) (enzyme)
chain: MATFVRNAWYVAALPEELSEKPLGRTILDTPLALYRQPDGVVAALLDICPHRFAPLSDGILVNGHLQCPYHGLEFDGGGQCVHNPHGNGARPASLNVRSFPVVERDALIWIWPGDPALADPGAIPDFGCRVDPAYRTVGGYGHVDCNYKLLVDNLMDLGHAQYVHRANAQTDAFDRLEREVIVGDGEIQALMKIPGGTPSVLMAKFLRGANTPVDAWNDIRWNKVSAMLNFIAVAPEGTPKEQSIHSRGTHILTPETEASCHYFFGSSRNFGIDDPEMDGVLRSWQAQALVKEDKVVVEAIERRRAYVEANGIRPAMLSCDEAAVRVSREIEKLEQLEAARLEHHHHHH
notes: also called DMOw; DdmC
In the case of B2, in series [1], the binding result is “binds”.

B3: A287M: DMO substitution variant (protein)
chain: B2 chain with W112C, A287M
For B3, the “Changed to: M % of control for set” value in the series on Dicamba (setting [2]) is 149.32%. In addition, the “Changed to: M DCSA values (ppm)” value in the series with Dicamba (mean +/− SD (n)) is 39.7 +/− 5.86 (4) ppm.

B4: G266S: DMO variant from NNS mutagenesis, more active than the control (protein)
chain: B2 chain with W112C, G266S
Regarding B4, in the series on Dicamba (NNS saturation mutagenesis variants, 200 to 500 μM Dicamba, 30 hrs, 37° C.), the “DMO activity of NNS mutagenesis variants (in words)” value was “more active than the control”. In the series with Dicamba (residue changed to S, DCSA relative to control average of the data set), the “Changed to: S % of control for set” value is 130.25%. For the same molecule, in the series on Dicamba (residue changed to S, mean +/− SD (n)), the “Changed to: S DCSA values (ppm)” value is on record as 34.63 +/− 4.14 (4) ppm.

B5: R248I: DMO substitution variant (protein)
chain: B2 chain with W112C, R248I
Take B5: the “Changed to: I % of control for set” value in the series on Dicamba (setting [2]) was determined as 146.23%. For the same molecule, in the series with Dicamba (mean +/− SD (n)), the “Changed to: I DCSA values (ppm)” value was 38.88 +/− 3.93 (4) ppm.

B6: L282I: DMO substitution variant (protein)
chain: B2 chain with W112C, L282I
On to B6, for which the “Changed to: I % of control for set” value with Dicamba (setting [2]) amounted to 116.03%. Further, the “Changed to: I DCSA values (ppm)” value in the series with Dicamba (mean +/− SD (n)) is 44.35 +/− 1.22 (4) ppm.

B7: N218H: DMO substitution variant (protein)
chain: B2 chain with W112C, N218H
On to B7, for which, in the series with Dicamba (residue changed to H, DCSA relative to control average of the data set), the “Changed to: H % of control for set” value is on record as 104.38%. For the same molecule, in the series with Dicamba (residue changed to H, mean +/− SD (n)), the “Changed to: H DCSA values (ppm)” value is reported as 39.9 +/− 9.75 (4) ppm.

B8: R248M: DMO substitution variant (protein)
chain: B2 chain with W112C, R248M
With B8, the “Changed to: M % of control for set” value in the series with Dicamba (setting [2]) came to 128.37%. In addition, in the series with Dicamba (mean +/− SD (n)), the “Changed to: M DCSA values (ppm)” value is listed as 34.13 +/− 3.09 (4) ppm.

B9: R248L: DMO substitution variant (protein)
chain: B2 chain with W112C, R248L
B9: in the series with Dicamba (residue changed to L, DCSA relative to control average of the data set), the “Changed to: L % of control for set” value is given as 153.00%. For the same molecule, the “Changed to: L DCSA values (ppm)” value with Dicamba (residue changed to L, mean +/− SD (n)) is given as 40.68 +/− 10.77 (4) ppm.

B10: R248K: DMO substitution variant (protein)
chain: B2 chain with W112C, R248K
B10: in the series on Dicamba (residue changed to K, DCSA relative to control average of the data set), the “Changed to: K % of control for set” value is on record as 155.15%. In addition, in the series on Dicamba (residue changed to K, mean +/− SD (n)), the “Changed to: K DCSA values (ppm)” value was 41.25 +/− 4.05 (4) ppm.

B11: R248C: DMO substitution variant (protein)
chain: B2 chain with W112C, R248C
On to B11, for which the “Changed to: C % of control for set” value in the series with Dicamba (setting [2]) was determined as 132.69%. Moreover, the “Changed to: C DCSA values (ppm)” value with Dicamba (mean +/− SD (n)) is listed as 35.28 +/− 12.15 (4) ppm.

B12: A287C: DMO substitution variant (protein)
chain: B2 chain with W112C, A287C
As for B12, the “Changed to: C % of control for set” value in the series with Dicamba (setting [2]) is reported as 109.56%. For the same molecule, in the series on Dicamba (mean +/− SD (n)), the “Changed to: C DCSA values (ppm)” value is 29.13 +/− 5.46 (4) ppm.

B13: A169M: DMO substitution variant (protein)
chain: B2 chain with W112C, A169M
As to B13, in the series with Dicamba (setting [2]), the “Changed to: M % of control for set” value came to 108.70%. The “Changed to: M DCSA values (ppm)” value in the series on Dicamba (mean +/− SD (n)) is 28.9 +/− 5.06 (4) ppm.

B14: N218M: DMO substitution variant (protein)
chain: B2 chain with W112C, N218M
As for B14, the “Changed to: M % of control for set” value in the series with Dicamba (setting [2]) stood at 106.92%. The “Changed to: M DCSA values (ppm)” value in the series on Dicamba (mean +/− SD (n)) is given as 40.87 +/− 0.62 (2) ppm.

B15: A287E: DMO substitution variant (protein)
chain: B2 chain with W112C, A287E
B15: in the series with Dicamba (residue changed to E, DCSA relative to control average of the data set), the “Changed to: E % of control for set” value is recorded as 113.40%. Besides, in the series with Dicamba (residue changed to E, mean +/− SD (n)), the “Changed to: E DCSA values (ppm)” value was 30.15 +/− 2.76 (4) ppm.
